This is an account of results in PMC3001952.

For this test, the target named is single chain trimer version of HLA-Cw6, normal length. Description: cell-cell conjugate formation by flow cytometry; PKH26-labelled NKL cells (or KIR2DL1-expressing NKL cells) mixed with equal numbers of PKH67-labelled P815 transfectants, 30 min, fixed with 1% paraformaldehyde; percentage of NKL cells forming conjugates.

Where only a bound is given, the exact number is not on record here.

“KIR2DL1-CFP on NKL cells (from UniProt P43626 22-348) (receptor)” returned a percent of NKL cells forming conjugates of more than 50%.
